# According to patent US20210284725A1 (Genentech, published 2021):
# T1: human IL-33 (human, UniProt O95760 112-270, limits assumed)
# T1 sequence (looked up): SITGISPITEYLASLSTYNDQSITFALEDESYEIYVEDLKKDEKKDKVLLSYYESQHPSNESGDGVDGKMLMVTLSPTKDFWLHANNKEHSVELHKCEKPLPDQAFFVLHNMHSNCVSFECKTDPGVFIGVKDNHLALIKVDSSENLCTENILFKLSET
# T2: cyno IL-33 (cynomolgus monkey, UniProt A0A2K5W3I1 112-269)
# T2 sequence: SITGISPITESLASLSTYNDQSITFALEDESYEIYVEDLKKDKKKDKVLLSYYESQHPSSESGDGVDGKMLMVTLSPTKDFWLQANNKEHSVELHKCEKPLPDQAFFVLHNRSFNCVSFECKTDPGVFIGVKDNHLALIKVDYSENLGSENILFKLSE
# T3: human IL-33 (His-tagged) (human, UniProt O95760 112-270, limits assumed)
# T3 construct: not shown: His tag
# T3 sequence (looked up): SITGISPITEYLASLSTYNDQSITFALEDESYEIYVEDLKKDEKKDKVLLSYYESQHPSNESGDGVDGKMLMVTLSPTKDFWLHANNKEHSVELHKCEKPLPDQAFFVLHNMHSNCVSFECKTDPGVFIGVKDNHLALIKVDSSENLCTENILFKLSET
# T4: cyno IL-33 (His-tagged) (cynomolgus monkey, UniProt A0A2K5W3I1 112-269)
# T4 construct: not shown: His tag
# T4 sequence: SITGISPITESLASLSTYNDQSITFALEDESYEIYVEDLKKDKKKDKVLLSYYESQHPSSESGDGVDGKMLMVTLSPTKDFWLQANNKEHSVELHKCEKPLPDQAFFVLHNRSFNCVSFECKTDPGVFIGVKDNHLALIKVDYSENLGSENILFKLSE
# T5: mouse IL-33 (His-tagged) (mouse, UniProt Q8BVZ5 109-266)
# T5 construct: also called murine IL-33; not shown: His tag
# T5 sequence (looked up): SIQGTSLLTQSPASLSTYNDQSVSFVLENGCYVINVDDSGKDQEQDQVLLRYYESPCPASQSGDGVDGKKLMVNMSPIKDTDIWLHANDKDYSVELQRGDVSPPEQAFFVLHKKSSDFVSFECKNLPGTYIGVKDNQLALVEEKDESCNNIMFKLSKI
# T6: rat IL-33 (His-tagged) (rat, UniProt Q66H70 109-264, limits assumed)
# T6 construct: not shown: His tag
# T6 sequence (looked up): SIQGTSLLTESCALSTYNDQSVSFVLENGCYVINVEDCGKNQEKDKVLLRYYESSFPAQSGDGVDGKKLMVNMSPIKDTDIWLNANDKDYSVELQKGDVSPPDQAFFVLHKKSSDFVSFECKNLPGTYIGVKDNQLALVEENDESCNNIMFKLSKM
# Assays:
# [1] = molecular target: T1, human IL-33; test: cell-based or functional assay
# [2] = molecular target: T2, cyno IL-33; test: cell-based or functional assay
# [3] = molecular target: T3, human IL-33 (His-tagged); test: SPR Biacore T200, antibody captured on anti-rat Fc, His-tagged IL-33 analyte, 25 C, 1:1 Langmuir
# Procedure: (§1) The binding kinetics of top anti-IL-33 antibodies were measured using SPR on a BIACORE® T200 instrument (GE Healthcare). A CM5 Series S sensorchip was coated with anti-rat Fc (Jackson) to create a capture surface. Antibody binding was measured to human, cyno, rat, mouse and oxidized IL-33 (His-tagged) using a concentration series starting with 50 nM with 1:3 dilutions. Sensorgrams for binding of cytokine were recorded using an injection time of 2 min with a flow rate of 30 μl/min, at a temperature of 25° C., and with a running buffer of 10 mM HEPES, pH 7.4, 150 mM NaCl, 3 mM EDTA, and 0.005% TWEEN®20. After injection, disassociation of the IL-33 from the antibody was monitored for 10 min in running buffer. The surface was regenerated between binding cycles with a 30μ injection of 10 mM glycine HCl pH 1.7. After subtraction of a blank which contained running buffer only, sensorgrams observed for cytokine binding to anti-IL-33 antibody were analyzed using a 1:1 Langmuir binding model with software supplied by the manufacturer to calculate the kinetics and binding constants.
# [4] = molecular target: T4, cyno IL-33 (His-tagged); test: as above
# Procedure: as §1
# [5] = molecular target: T5, mouse IL-33 (His-tagged); test: as above
# Procedure: as §1
# [6] = molecular target: T6, rat IL-33 (His-tagged); test: as above
# Procedure: as §1
# [7] = molecular target: T1, human IL-33; test: cell-based or functional assay; remark: listed apart in the source
# [8] = molecular target: T3, human IL-33 (His-tagged); test: SPR Biacore T200, IgG captured on protein A chip, His-tagged human IL-33 analyte, 25 C, n=2; column head prints 'KD (nM)' but the E-notation cells are in M, unit corrected to M
# Procedure: A protein A sensorchip (GE Healthcare) was used following manufacturer provided protocols to capture humanized anti-IL-33 antibodies using a BIACORE® T200 instrument (GE). Antibody binding was measured to human IL-33 (His-tagged) using multi-cycle kinetics. Sensorgrams for binding of IL-33 were recorded using an injection time of 2 min with a flow rate of 30 μl/min, at a temperature of 25° C., and with a running buffer of 10 mM HEPES, pH 7.4, 150 mM NaCl, 3 mM EDTA, and 0.005% TWEEN620. After injection, disassociation of IL-33 from the antibody was monitored for 10 min in running buffer. The surface was regenerated between binding cycles with a 30 μl injection of 10 mM Glycine HCl pH 1.5. After subtraction of a blank which contained running buffer only, sensorgrams observed for cytokine binding to anti-IL-33 antibody were analyzed using a 1:1 Langmuir binding model with software supplied by the manufacturer to calculate the kinetics and binding constants.
# [9] = molecular target: T3, human IL-33 (His-tagged); test: SPR Biacore 8k, Fab amine-coupled to CM5 chip, His-tagged IL-33 analyte, 35 C, 1:1 Langmuir
# Procedure: (§2) The binding kinetics of the 1E1v8 Fab were measured using SPR on a BIACORE® 8k instrument (GE Healthcare). 1E1v8 Fab was directly immobilized on 4 different flow cells of a CM5 Series S sensorchip at low density using amine coupling. Antibody fragment binding was measured to human and cyno IL-33 (His-tagged) using a concentration series starting with 50 nM with 1:3 dilutions. Sensorgrams for binding of IL-33 were recorded using an injection time of 2 min with a flow rate of 100 μl/min, at a temperature of 25° C. or 35° C., and with a running buffer of 10 mM HEPES, pH 7.4, 150 mM NaCl, 3 mM EDTA, and 0.005% TWEEN®20. After injection, disassociation of the IL-33 from the antibody was monitored for 30 min in running buffer. The surface was regenerated between binding cycles with a 30 μl injection of 10 mM glycine HCl pH 1.7. After subtraction of a blank which contained running buffer only, sensorgrams observed for cytokine binding to anti-IL-33 antibody were analyzed using a 1:1 Langmuir binding model with software supplied by the manufacturer to calculate the kinetics and binding constants.
# [10] = molecular target: T4, cyno IL-33 (His-tagged); test: as above
# Procedure: as §2
# [11] = molecular target: T3, human IL-33 (His-tagged); test: SPR Biacore 8k, Fab amine-coupled to CM5 chip, His-tagged IL-33 analyte, 25 C, 1:1 Langmuir
# Procedure: as §2
# [12] = molecular target: T4, cyno IL-33 (His-tagged); test: as above
# Procedure: as §2
binder,measurement,setting,value
"rat anti-human IL-33 hybridoma antibody 1E1 (antibody, V domains shown, Purified rat hybridoma IgG; also called clone 1E1; hybridoma derived clone 1E1) VH: EVQLVESGGGLVQPGTSLKLSCLASGFTFNNYWMTWIRQAPGKGLEWIASITYTGGGTYYPDSVKGRFTISRDDAKSTLYLQMNSLRSEDTATYYCTRANYYYNTYGGFPYWGQGTLVTVSS VL: DIQMTQSPASLSASLGETVSIECLASEGFSNDLAWYQQKSGKSPQLLIYAASRLQDGVPSRFSGSGSGTRFSLKISGMQPEDEADYFCQQGSKYPLTFGSGTKLEIK","IC50 (M), IL-33 neutralization activity, HEK-BLUE IL-33 cells (SEAP reporter), human IL-33 at 160 pM",[1],3.6e-11 M
same,"IC50 (M), IL-33 neutralization activity, HEK-BLUE IL-33 cells (SEAP reporter), cyno IL-33 at 300 pM",[2],1.6e-10 M
same,Kd,[3],0.021 nM
same,koff,[3],2.28e-05 s⁻¹
same,kon,[3],1.08e+06 M⁻¹ s⁻¹
same,Kd,[4],0.0392 nM
same,koff,[4],2.24e-05 s⁻¹
same,kon,[4],570000 M⁻¹ s⁻¹
same,Kd,[5],37.4 nM
same,koff,[5],0.00213 s⁻¹
same,kon,[5],56800 M⁻¹ s⁻¹
same,Kd,[6],1.6 nM
same,koff,[6],0.000219 s⁻¹
same,kon,[6],140000 M⁻¹ s⁻¹
"ch1E1 (antibody, V domains shown) VH: EVQLVESGGGLVQPGTSLKLSCLASGFTFNNYWMTWIRQAPGKGLEWIASITYTGGGTYYPDSVKGRFTISRDDAKSTLYLQMNSLRSEDTATYYCTRANYYYNTYGGFPYWGQGTLVTVSS VL: DIQMTQSPASLSASLGETVSIECLASEGFSNDLAWYQQKSGKSPQLLIYAASRLQDGVPSRFSGSGSGTRFSLKISGMQPEDEADYFCQQGSKYPLTFGSGTKLEIKR","IC50 (M), IL-33 neutralization activity, HEK-BLUE IL-33 cells, human IL-33 at 160 pM",[7],2.9e-11 M
same,Kd,[8],0.148 nM
"1E1v13 (antibody, human IgG1, V domains shown, Humanized 1E1 variant, human IgG1 backbone, expressed in Expi293F) VH: EVQLVESGGGLVQPGGSLRLSCAASGFTFNNYWMTWVRQAPGKGLEWIASITYTGGGTYYPDSVKGRFTISRDDAKSSLYLQMNSLRAEDTAVYYCTRANYYYNTYGGFPYWGQGTLVTVSS VL: DIQMTQSPSSLSASVGDRVTITCLASEGFSNDLAWYQQKPGKAPKSLIYAASRLQDGVPSRFSGSGSGTDFTLTISSLQPEDFATYFCQQGSKYPLTFGGGTKVEIK","IC50 (M), IL-33 neutralization activity, HEK-BLUE IL-33 cells, human IL-33 at 160 pM",[7],2.98e-11 M
same,Kd,[8],0.14 nM
"1E1v20 (antibody, human IgG1, V domains shown, Humanized 1E1 variant, human IgG1 backbone, expressed in Expi293F) VH: EVQLVESGGGLVQPGGSLRLSCAASGFTFNNYWMTWVRQAPGKGLEWVASITYTGGGTYYPDSVKGRFTISRDDAKSSLYLQMNSLRAEDTAVYYCTRANYYYNTYGGFPYWGQGTLVTVSS VL: DIQMTQSPSSLSASVGDRVTITCLASEGFSNDLAWYQQKPGKAPKSLIYAASRLQDGVPSRFSGSGSGTDFTLTISSLQPEDFATYYCQQGSKYPLTFGGGTKVEIK","IC50 (M), IL-33 neutralization activity, HEK-BLUE IL-33 cells, human IL-33 at 160 pM",[7],3.44e-11 M
same,Kd,[8],0.128 nM
"1E1v8 Fab (Fab, V domains shown, also called 1E1v8 human Fab; anti-IL-33 1E1v8 Fab) VH: EVQLVESGGGLVQPGGSLRLSCAASGFTFNNYWMTWIRQAPGKGLEWVASITYTGGGTYYPDSVKGRFTISRDDAKSSLYLQMNSLRAEDTAVYYCTRANYYYNTYGGFPYWGQGTLVTVSS VL: DIQMTQSPSSLSASVGDRVTITCLASEGFSNDLAWYQQKPGKSPKLLIYAASRLQDGVPSRFSGSGSGTDFTLTISSLQPEDFATYFCQQGSKYPLTFGGGTKVEIK",Kd,[9],0.0148 nM
same,koff,[9],1.26e-05 s⁻¹
same,kon,[9],858000 M⁻¹ s⁻¹
same,Kd,[10],0.0345 nM
same,koff,[10],1.82e-05 s⁻¹
same,kon,[10],527000 M⁻¹ s⁻¹
same,Kd,[11],0.0147 nM
same,koff,[11],9.99e-06 s⁻¹
same,kon,[11],684000 M⁻¹ s⁻¹
same,Kd,[12],0.0223 nM
same,koff,[12],7.85e-06 s⁻¹
same,kon,[12],354000 M⁻¹ s⁻¹
"1E1v21 (antibody, human IgG1, V domains shown, Humanized 1E1 variant, human IgG1 backbone, expressed in Expi293F) VH: EVQLVESGGGLVQPGGSLRLSCAASGFTFNNYWMTWVRQAPGKGLEWVASITYTGGGTYYPDSVKGRFTISRDDAKNSLYLQMNSLRAEDTAVYYCTRANYYYNTYGGFPYWGQGTLVTVSS VL: DIQMTQSPSSLSASVGDRVTITCLASEGFSNDLAWYQQKPGKAPKSLIYAASRLQDGVPSRFSGSGSGTDFTLTISSLQPEDFATYYCQQGSKYPLTFGGGTKVEIK","IC50 (M), IL-33 neutralization activity, HEK-BLUE IL-33 cells, human IL-33 at 160 pM",[7],3.1e-11 M
same,Kd,[8],0.155 nM
"1E1v12 (antibody, human IgG1, V domains shown, Humanized 1E1 variant, human IgG1 backbone, expressed in Expi293F) VH: EVQLVESGGGLVQPGGSLRLSCAASGFTFNNYWMTWVRQAPGKGLEWVASITYTGGGTYYPDSVKGRFTISRDNAKSSLYLQMNSLRAEDTAVYYCTRANYYYNTYGGFPYWGQGTLVTVSS VL: DIQMTQSPSSLSASVGDRVTITCLASEGFSNDLAWYQQKPGKAPKSLIYAASRLQDGVPSRFSGSGSGTDFTLTISSLQPEDFATYFCQQGSKYPLTFGGGTKVEIK","IC50 (M), IL-33 neutralization activity, HEK-BLUE IL-33 cells, human IL-33 at 160 pM",[7],2.44e-11 M
same,Kd,[8],0.163 nM
"1E1v19 (antibody, human IgG1, V domains shown, Humanized 1E1 variant, human IgG1 backbone, expressed in Expi293F) VH: EVQLVESGGGLVQPGGSLRLSCAASGFTFNNYWMTWIRQAPGKGLEWIASITYTGGGTYYPDSVKGRFTISRDDAKSSLYLQMNSLRAEDTAVYYCTRANYYYNTYGGFPYWGQGTLVTVSS VL: DIQMTQSPSSLSASVGDRVTITCLASEGFSNDLAWYQQKPGKAPKSLIYAASRLQDGVPSRFSGSGSGTDFTLTISSLQPEDFATYYCQQGSKYPLTFGGGTKVEIK","IC50 (M), IL-33 neutralization activity, HEK-BLUE IL-33 cells, human IL-33 at 160 pM",[7],3.19e-11 M
same,Kd,[8],0.132 nM
